Data published in the nanobody polyreactivity screen of Harvey et al. (2022).

Assay: yeast display, Sf9 membrane polyspecificity reagent, FACS + sequencing; frameworks hold sequencing errors
Outline: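 Genes from sorted yeast were amplified by colony PCR, read by MiSeq 2 × 250 sequencing and filtered on CDR length. These cells carried a synthetic nanobody library in Saccharomyces cerevisiae BJ5465 and were sorted by FACS into low and high (top ~1%) gates on anti-HA and streptavidin fluorescence. Polyreactivity is labelled according to the gate of origin.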

With “QVQLVESGGGLVQAGGSLRLSCAASGSTFTFNAMGWYRQAPGKERELVAVISSGGSTYYADSVKGRFTISRDNAKNTVYLQMNSLKPEDTAVYYCNKVYGYFGQYYLRYNYWGQGTQVTVSS” as the sequence, how does the “polyreactivity (PSR sort gate)” value read?
The value was “low polyreactivity”.

For “QVQLVESGGGLVQAGGSLRLSCAASGSTFTFNAMGWYRQATGKERELVAAITRSGTSTYYADSVKGRFTISRDNAKNTVYLQMNSLKPEDNAVYYCAAGRLWKTYEYYYWGQGTQVTVSS”, which “polyreactivity (PSR sort gate)” value is on record?
Its value is “high polyreactivity”.

Which “polyreactivity (PSR sort gate)” value does the source give for “QVQLVESGGGLVQAGGSLRLSCAASGSTFTFYAMGWYRQAPGKQRELVATISSSGVSTSYADSVKGRFTISRDNAKNTVDLEMNSLKPEDTAVYYCNAGYRRRFIFDYWGQGTQVTVSS” here?
Its value is “low polyreactivity”.

For “QVQLVESGGGLVQAGGSLRLSCAASGSTFTGYTMGWYRQAPGKEREFVAAISSRGGSTYYADSVKGRFTISRDNAKNTVFLQMNSLKPEETAVYYCAAKVWARVDGRQFRMEYWGQGTQVTVSS”, which “polyreactivity (PSR sort gate)” value is on record?
The value was “high polyreactivity”.

Which “polyreactivity (PSR sort gate)” value does the source give for “QVQLVESGGGLVQAGGSLRLSCAASGSTFTKYSMGWYRQAPGKERELVAAITGSGGRTYYADSEKGRFTISRDNAKNTVYLQMNSLKPEDTAVYYCAAEKAAGWYSGYDYWGQGTQVTVSS” here?
The value was “high polyreactivity”.

Which “polyreactivity (PSR sort gate)” value does the source give for “QVQLVESGGGLVQAGGSLRLSCAASGSTFTLNAMGWYRQAPGKERELVADISWSSGRTYYADSVKGRFTISRDTAKNTVYLQMNSLKPEDTAVYYCATEDFWNVKFYAYYPEFDYWGQGTQVTVSS” here?
The value was “low polyreactivity”.

For “QVQLVESGGGLVQAGGSLRLSCAASGSTFTLYAMGWSRPAPGKERELVATISWNGGRTYYADSVKGRFTISRDNAKNTVYLQMNSLKPEDTAVYYCAADTYDADYDYWGQGTQVTVSS”, which “polyreactivity (PSR sort gate)” value is on record?
The value was “high polyreactivity”.

Which “polyreactivity (PSR sort gate)” value does the source give for “QVQLVESGGGLVQAGGSLRLSCAASGSTFTLYAMGWYRQAPGKERELVASITASDGSTSYADSVKGRFTISRDNAKNTVYLQMNSLKPEDTAVYYCAARYRVRGISYYYWGQGTQVTVSS” here?
The value was “low polyreactivity”.

For “QVQLVESGGGLVQAGGSLRLSCAASGSTFTLYAMGWYRQAPGKERELVATITGSGGSTNYADSVKGRFTISRDNAKNTVYLQMNSLKPEDTAVYYCAADYAVYSFTEFNYWGHGTQVTVSS”, which “polyreactivity (PSR sort gate)” value is on record?
The value was “high polyreactivity”.

Which “polyreactivity (PSR sort gate)” value does the source give for “QVQLVESGGGLVQAGGSLRLSCAASGSTFTNYAMGWYRQAPGKERELVAAIDRRDGTTYYADSVKGRFTISRDNAKNTVYLQMNSLKPEDTAVYYCAADRDYSADVPGYYYWGQGTQVTVSS” here?
Its value is “low polyreactivity”.

With “QVQLVESGGGLVQAGGSLRLSCAASGSTFTPNAMGWYRQAPGKERELVAAINWSDSSTYYADSVKGRFTISRDNAKNTVYLQMNSLKPEETAVYYCAAAAQYGQLQVPVYYWGQGTQVTVSS” as the sequence, how does the “polyreactivity (PSR sort gate)” value read?
The value was “low polyreactivity”.

With “QVQLVESGGGLVQAGGSLRLSCAASGSTFTPYAMGWYRQAPGKERELVAAISWSDDSTYYADSVKGRFTISRDNAKNTVYLQMNSLKPEDTAVYYCAASAYVDYGVYTYIMDYWGQGTQVTVSS” as the sequence, how does the “polyreactivity (PSR sort gate)” value read?
The value was “high polyreactivity”.

For “QVQLVESGGGLVQAGGSLRLSCAASGSTFTPYAMGWYRQAPGKERELVAAITWRGGSTYYADSVKGRFTISRDNAKNTVYLQMNSLKPEDTAVYYCAAEDYLYFFYAYGYWGQGTQVTVSS”, which “polyreactivity (PSR sort gate)” value is on record?
Its value is “high polyreactivity”.

Which “polyreactivity (PSR sort gate)” value does the source give for “QVQLVESGGGLVQAGGSLRLSCAASGSTFTPYTMGWYRQAPGKERELVATITGSDGSTYYADSVKGRFTISRDNAKNTVYLQMNSLKPEDTAVYYCYADETRWTWDPFSYICDDYWGQGTQVTVSS” here?
Its value is “low polyreactivity”.

For “QVQLVESGGGLVQAGGSLRLSCAASGSTFTPYVMGWYRQAPGKEREMVASITGGGGSTYADSVKGRFTISRDNAKNTVYVQMNSLKPEDTAVYYCAAELYRSNVYHYDYWGQGSQVTVSS”, which “polyreactivity (PSR sort gate)” value is on record?
The value was “high polyreactivity”.

For “QVQLVESGGGLVQAGGSLRLSCAASGSTFTRNAMGWYRQAPGKERELVAVISSRGGRTYYADSVKGRFTISRDNAKNTVYLQMNSLKPEDTAVYYCAARYVIPLGNSYDYWGQGTQVTVSS”, which “polyreactivity (PSR sort gate)” value is on record?
The value was “high polyreactivity”.

For “QVQLVESGGGLVQAGGSLRLSCAASGSTFTRYAMGWYRQEPGKERELVAAITRRGVSTYYSDSVKGRFTISLDNAKNTVYLQMNSLKPEDTAVYYCNADVEHYSTLSEYWGQGTQVTVSS”, which “polyreactivity (PSR sort gate)” value is on record?
Its value is “high polyreactivity”.
